Our source for the Km and kcat values is PMC10142695, “Expression and Characterization of 3,6-Dihydroxy-picolinic Acid Decarboxylase PicC of Bordetella bronchiseptica RB50” (Microorganisms, 2023).

Substrate in the data set: O=C(O)c1nc(O)ccc1O
As to the kind of experiment: purified protein. It is filed as biochemical, Bordetella bronchiseptica. To be noted: 50 mM PBS pH 7.4 (unit definition says pH 7.0), 25 °C, 0 to 300 μM 3,6DHPA, no added metal stated.

B1: PicCRB50 (Bordetella bronchiseptica RB50) (protein)
chain: MTKVRKIAFEEHFTAVGFGDYSKAFVQHLDPGFAAELGARLTDFGAGRLAEMDAAGIDYAILSQTGPGVQGEPDAAVALRRARENNDFLAERIARHPDRFGGFAALPMHDPKTAAAELTRAVRELGFKGSLVNGHTNGVYYDDPAYDAFWEQMQELDVPLYLHPFDAYVLPHAYKGHPELAGATWGWGVETGTHALRLLFGGVFDRFPKLKIILGHMGEGLPFQRWRFDSRFAAYPYGVKLQRAPSEYIGSNILITTSGVCSHPTLVGAIAEMGAEAVMFSIDYPYESTALAVEFIESAPLDAATRELVCYGNAARLFKL
As to B1, the Km turned out to be 20.41 ± 2.60 µM and the kcat is reported as 7.61 ± 0.53 S^−1.

By Km is commonly meant the substrate concentration at which the rate is half of its maximum.
